# Values quoted from earlier work as cited in patent US20020119915A1, “Nutritional intervention composition containing a source of proteinase inhibitor extending post meal satiety” (priority 1999, published 2002).
# B1: Cholecystokinin (peptide, UniProt P06307 21-115, looked up)
# Cholecystokinin: QPVPPADPAGSGLQRAEEAPRRQLRVSQRTDGESRAHLGALLARYIQQARKAPSGRMSIVKNLQNLDPSHRISDRDYMGWMDFGRRSAEEYEYPS
# modifications: Cholecystokinin
# Tested on: humans
# Conditions: injection, 1981 study
molecule,measurement,value
B1,Decrease of food intake,16%
